# Measurements as given in paper PMC6894070, “The Plasmodium falciparum Hsp70-x chaperone assists the heat stress response of the malaria parasite” (The FASEB Journal, 2019).
# Biological target: Plasmodium falciparum Hsp70-x (PfHsp70-x), full-length construct aa 25-679 (P. falciparum) (UniProt K7NTP5)
substance,measurement,value
"J-domain of P. falciparum Hsp40 cochaperone PFE0055c (PFE0055cJ), aa 77-148 (domain or fragment)","apparent dissociation constant from titrating the cochaperone in ATP hydrolysis assays (5 μM chaperone, single-site binding fit)",3 µM
